Reference: the supplement of paper PMC10567573

B1: WDR88 (parent)
chain: LLTITKAHSNAISNCCFTFSGHFL

Variants of: B1
Assay: protein stability index of a GFP-peptide fusion (GPS, HEK-293T) (PSI 1-6); higher = more stable
Details: c terminus: a fixed tail appended
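Further: lentivirally expressed fusions sorted by FACS into six bins by GFP to DsRed ratio, PSI derived from sequencing read proportions per bin multiplied by bin number.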

Going from LLTITKAHSNAISNCCFTFSGHFS [L24S] to LLTITKAHSNAISNCCFTFSGHFV [L24V], the protein stability index rises from 1.09 to 1.91.

Going from LLTITKAHSNAISNCCFTFSGHFK [L24K] to LLTITKAHSNAISNCCFTFSGHFN [L24N], the protein stability index rises from 2.93 to 3.3.

Going from LLTITKAHSNAISNCCFTFSGHFI [L24I] to LLTITKAHSNAISNCCFTFSGHFW [L24W], the protein stability index falls from 3.37 to 1.58.

First: LLTITKAHSNAISNCCFTFSGHFD [L24D]
Second: LLDITKAHSNAISNCCFTFSGHFL [T3D]
The protein stability index of the first is lower: 1.92 for the first, 2.61 for the second.

First: LLAITKAHSNAISNCCFTFSGHFL [T3A]
Second: LLFITKAHSNAISNCCFTFSGHFL [T3F]
The protein stability index of the first is lower: 2.93 for the first, 3.14 for the second.

First: LLGITKAHSNAISNCCFTFSGHFL [T3G]
Second: LLTITKAHSNAISNCCFTFSMHFL [G21M]
The protein stability index of the first is lower: 1.94 for the first, 3.69 for the second.

Compared with LLTITKAHSNAISNCCFTFSEHFL [G21E], LLTITKAHSNAISNCCFTFSWHFL [G21W] is higher in protein stability index: 2.6 for the first, 2.94 for the second.

First: LLTITKAHSNAISNCCFTFSVHFL [G21V]
Second: LLTINKAHSNAISNCCFTFSGHFL [T5N]
The protein stability index of the first is higher: 2.89 for the first, 1.67 for the second.

Going from LLTIGKAHSNAISNCCFTFSGHFL [T5G] to LLTIAKAHSNAISNCCFTFSGHFL [T5A], the protein stability index rises from 2.73 to 3.41.

First: LLTITKAHSNAIGNCCFTFSGHFL [S13G]
Second: LLTITKAHSNAILNCCFTFSGHFL [S13L]
The protein stability index of the first is lower: 2.7 for the first, 3.23 for the second.

Compared with LLTITKAHSNAIENCCFTFSGHFL [S13E], LLTITKAHSNAIHNCCFTFSGHFL [S13H] is higher in protein stability index: 2.6 for the first, 3.44 for the second.

Compared with LLTITKAHSNAIINCCFTFSGHFL [S13I], LWTITKAHSNAISNCCFTFSGHFL [L2W] is lower in protein stability index: 3.51 for the first, 3.22 for the second.

Compared with LMTITKAHSNAISNCCFTFSGHFL [L2M], LNTITKAHSNAISNCCFTFSGHFL [L2N] is higher in protein stability index: 2.53 for the first, 2.82 for the second.

First: LATITKAHSNAISNCCFTFSGHFL [L2A]
Second: LVTITKAHSNAISNCCFTFSGHFL [L2V]
The protein stability index of the first is higher: 3.15 for the first, 2.33 for the second.

First: LLTITKPHSNAISNCCFTFSGHFL [A7P]
Second: LLTITKHHSNAISNCCFTFSGHFL [A7H]
The protein stability index of the first is lower: 2.04 for the first, 3.42 for the second.

Going from LLTITKRHSNAISNCCFTFSGHFL [A7R] to LLTITKLHSNAISNCCFTFSGHFL [A7L], the protein stability index falls from 3.62 to 3.04.

First: LLTATKAHSNAISNCCFTFSGHFL [I4A]
Second: LLTCTKAHSNAISNCCFTFSGHFL [I4C]
The protein stability index of the first is higher: 2.47 for the first, 2.19 for the second.

Compared with LLTGTKAHSNAISNCCFTFSGHFL [I4G], LLTQTKAHSNAISNCCFTFSGHFL [I4Q] is lower in protein stability index: 1.9 for the first, 1.8 for the second.

Compared with LLTNTKAHSNAISNCCFTFSGHFL [I4N], RLTITKAHSNAISNCCFTFSGHFL [L1R] is lower in protein stability index: 2.89 for the first, 2.75 for the second.

Going from FLTITKAHSNAISNCCFTFSGHFL [L1F] to PLTITKAHSNAISNCCFTFSGHFL [L1P], the protein stability index rises from 2.52 to 2.81.

Compared with LLTITKAHSNAASNCCFTFSGHFL [I12A], LLTITKAHSNAFSNCCFTFSGHFL [I12F] is higher in protein stability index: 2.3 for the first, 3.3 for the second.

First: LLTITKAHSNAQSNCCFTFSGHFL [I12Q]
Second: LLTITKAHSNADSNCCFTFSGHFL [I12D]
The protein stability index of the first is higher: 2.57 for the first, 1.96 for the second.

First: LLTITKAHSNAKSNCCFTFSGHFL [I12K]
Second: LLTITKAHSNATSNCCFTFSGHFL [I12T]
The protein stability index of the first is lower: 2.4 for the first, 2.98 for the second.

Going from LLTITKADSNAISNCCFTFSGHFL [H8D] to LLTITKAKSNAISNCCFTFSGHFL [H8K], the protein stability index falls from 3.88 to 3.13.

First: LLTITKACSNAISNCCFTFSGHFL [H8C]
Second: LLTITKAASNAISNCCFTFSGHFL [H8A]
The protein stability index of the first is lower: 2.53 for the first, 3.08 for the second.

Compared with LLTITKATSNAISNCCFTFSGHFL [H8T], LLTITKAYSNAISNCCFTFSGHFL [H8Y] is higher in protein stability index: 2.38 for the first, 4.38 for the second.

First: LLTITRAHSNAISNCCFTFSGHFL [K6R]
Second: LLTITPAHSNAISNCCFTFSGHFL [K6P]
The protein stability index of the first is lower: 2.72 for the first, 3.02 for the second.

Compared with LLTITYAHSNAISNCCFTFSGHFL [K6Y], LLTITMAHSNAISNCCFTFSGHFL [K6M] is higher in protein stability index: 1.83 for the first, 2.66 for the second.

Compared with LLTITGAHSNAISNCCFTFSGHFL [K6G], LLTITKAHSNAISNCCFTVSGHFL [F19V] is lower in protein stability index: 2.44 for the first, 2.15 for the second.

First: LLTITKAHSNAISCCCFTFSGHFL [N14C]
Second: LLTITKAHSNAISFCCFTFSGHFL [N14F]
The protein stability index of the first is higher: 3.23 for the first, 3.06 for the second.

Compared with LLTITKAHSNAISDCCFTFSGHFL [N14D], LLTITKAHSNAISACCFTFSGHFL [N14A] is lower in protein stability index: 3.07 for the first, 1.44 for the second.

Compared with LLTITKAHSNAISMCCFTFSGHFL [N14M], LLTITKAHSNAISNCCGTFSGHFL [F17G] is lower in protein stability index: 2.99 for the first, 1.69 for the second.

Going from LLTITKAHSNAISNCCLTFSGHFL [F17L] to LLTITKAHSNAISNCCPTFSGHFL [F17P], the protein stability index falls from 3.73 to 2.13.

Going from LLTITKAHSNAISNCCMTFSGHFL [F17M] to LLTITKAHSNAISNCCKTFSGHFL [F17K], the protein stability index rises from 2.29 to 2.43.

Compared with LLTITKAHSNAISNCCVTFSGHFL [F17V], LLTITKAHSNAISNCCFTFSGHYL [F23Y] is higher in protein stability index: 2.88 for the first, 2.94 for the second.

Going from LLTITKAHSNAISNCCFTFSGHTL [F23T] to LLTITKAHSNAISNCCFTFSGHEL [F23E], the protein stability index rises from 1.91 to 2.1.

Compared with LLTITKAHSNAISNCCFTFSGHKL [F23K], LLTITKAHSHAISNCCFTFSGHFL [N10H] is higher in protein stability index: 1.94 for the first, 2.75 for the second.

First: LLTITKAHSNAISNSCFTFSGHFL [C15S]
Second: LLTITKAHSNAISNCCFTFSGPFL [H22P]
The protein stability index of the first is higher: 2.97 for the first, 2.51 for the second.

Going from LLTITKAHSNAISNCCFTFSGTFL [H22T] to LLTITKAHSNAISNCCFTFSGMFL [H22M], the protein stability index rises from 2.83 to 3.59.

Compared with LLTITKAHSNAISNCCFLFSGHFL [T18L], LLTITKAHSNAISNCCFRFSGHFL [T18R] is higher in protein stability index: 2.92 for the first, 2.93 for the second.

Compared with LLTITKAHSNAISNCCFCFSGHFL [T18C], LLTITKAHSNAISNCCFDFSGHFL [T18D] is lower in protein stability index: 2.47 for the first, 2.03 for the second.

Going from LLTITKAHWNAISNCCFTFSGHFL [S9W] to LLTITKAHPNAISNCCFTFSGHFL [S9P], the protein stability index falls from 3.1 to 2.39.

Going from LLTITKAHSNLISNCCFTFSGHFL [A11L] to LLTITKAHSNCISNCCFTFSGHFL [A11C], the protein stability index falls from 3.15 to 1.97.

Going from LLTITKAHSNQISNCCFTFSGHFL [A11Q] to LLTITKAHSNKISNCCFTFSGHFL [A11K], the protein stability index falls from 3.19 to 2.66.

First: LLTITKAHSNGISNCCFTFSGHFL [A11G]
Second: LLTITKAHSNNISNCCFTFSGHFL [A11N]
The protein stability index of the first is higher: 3.47 for the first, 3.27 for the second.

Compared with LLTITKAHSNAISNCCFTFRGHFL [S20R], LLTITKAHSNAISNCGFTFSGHFL [C16G] is lower in protein stability index: 3.76 for the first, 2.75 for the second.

Going from LLTITKAHSNAISNCTFTFSGHFL [C16T] to LLTITKAHSNAISNCQFTFSGHFL [C16Q], the protein stability index falls from 2.9 to 2.41.
